Assay results published in PMC9352680, “A comprehensive thermodynamic model for RNA binding by the Saccharomyces cerevisiae Pumilio protein PUF4”.

T1: PUF4 RNA-binding domain (Saccharomyces cerevisiae, UniProt P25339 537-888)
T1 sequence: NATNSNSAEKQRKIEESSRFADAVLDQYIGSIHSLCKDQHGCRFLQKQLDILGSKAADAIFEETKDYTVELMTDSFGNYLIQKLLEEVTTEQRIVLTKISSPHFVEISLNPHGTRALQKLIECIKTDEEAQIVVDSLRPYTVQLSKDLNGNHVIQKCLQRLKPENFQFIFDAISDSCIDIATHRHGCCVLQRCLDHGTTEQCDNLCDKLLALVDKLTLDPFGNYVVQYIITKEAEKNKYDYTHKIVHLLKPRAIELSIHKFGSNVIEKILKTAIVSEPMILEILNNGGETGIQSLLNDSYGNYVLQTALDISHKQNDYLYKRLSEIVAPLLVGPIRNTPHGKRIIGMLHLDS


molecular target: T1, PUF4 RNA-binding domain; experiment: Mg; RNA-MaP; 20 mM Na-HEPES pH 7.4, 30 mM KOAc, 0.75 mM MgCl2, 0.1% Tween-20, 5% glycerol, 0.1 mg/mL BSA, 2 mM DTT; 25 C; 0.0125-409.6 nM protein; conditions: tags: N-His6-TEV cleaved; C-SNAP kept, Cy3B-labelled; label: tethered on chip by stalled RNA polymerase

Row | Binder | Kd
1 | Id_ii_S2_P4E.2_K4.1_C4.2_[C-2G]_[T-1G]_H4.1_A4.1_F4.1_T4.2_[G10T] (ssRNA) RNA: UUUGAUUAAUAUGAUAUCGUUCUUUCUGGUGUAUAUUAUUUUCUUUCUCGAUAUCAUAUUAAUCUUU | 0.435 nM
2 | Id_ii_S2_P4E.2_K4.1_C4.2_[C-2G]_H4.1_A4.1_F4.1_T4.2_[G10T]_[T11G] (ssRNA) RNA: UUUGAUUAAUAUGAUAUCGUUCUUUCUGUUGUAUAUUAUGUUCUUUCUCGAUAUCAUAUUAAUCUUU | 0.585 nM
3 | Id_ii_S2_P4E.2_K4.1_C4.2_[C-2G]_H4.1_A4.1_F4.1_T4.2_[G10T]_[T11C] (ssRNA) RNA: UUUGAUUAAUAUGAUAUCGUUCUUUCUGUUGUAUAUUAUCUUCUUUCUCGAUAUCAUAUUAAUCUUU | 1.6 nM
4 | Id_ii_S2_P4E.2_K4.1_C4.2_[C-2T]_[T-1C]_H4.1_A4.1_F4.1_T4.2_[G10C]_[T11C] (ssRNA) RNA: UUUGAUUAAUAUGAUAUCGUUCUUUCUUCUGUAUAUUACCUUCUUUCUCGAUAUCAUAUUAAUCUUU | 0.565 nM
5 | Id_ii_S2_P4E.2_K4.1_C4.2_[C-2G]_H4.1_A4.1_F4.1_T4.2_[G10T]_[T11A] (ssRNA) RNA: UUUGAUUAAUAUGAUAUCGUUCUUUCUGUUGUAUAUUAUAUUCUUUCUCGAUAUCAUAUUAAUCUUU | 0.928 nM
6 | Id_ii_S2_P4E.2_K4.1_C4.2_[C-2T]_[T-1G]_H4.1_A4.1_F4.1_T4.2_[G10T] (ssRNA) RNA: UUUGAUUAAUAUGAUAUCGUUCUUUCUUGUGUAUAUUAUUUUCUUUCUCGAUAUCAUAUUAAUCUUU | 0.23 nM
7 | Id_ii_S2_P4E.2_K4.1_C4.2_[C-2T]_[T-1G]_H4.1_A4.1_F4.1_T4.2_[G10A]_[T11A] (ssRNA) RNA: UUUGAUUAAUAUGAUAUCGUUCUUUCUUGUGUAUAUUAAAUUCUUUCUCGAUAUCAUAUUAAUCUUU | 0.532 nM
8 | Id_ii_S2_P4E.2_K4.1_C4.2_[C-2G]_H4.1_A4.1_F4.1_T4.2_[G10C]_[T11C] (ssRNA) RNA: UUUGAUUAAUAUGAUAUCGUUCUUUCUGUUGUAUAUUACCUUCUUUCUCGAUAUCAUAUUAAUCUUU | 1.8 nM
9 | Id_ii_S2_P4E.2_K4.1_C4.2_[C-2T]_[T-1G]_H4.1_A4.1_F4.1_T4.2_[G10T]_[T11G] (ssRNA) RNA: UUUGAUUAAUAUGAUAUCGUUCUUUCUUGUGUAUAUUAUGUUCUUUCUCGAUAUCAUAUUAAUCUUU | 0.416 nM
10 | Id_ii_S2_P4E.2_K4.1_C4.2_[C-2G]_[T-1C]_H4.1_A4.1_F4.1_T4.2_[G10A]_[T11A] (ssRNA) RNA: UUUGAUUAAUAUGAUAUCGUUCUUUCUGCUGUAUAUUAAAUUCUUUCUCGAUAUCAUAUUAAUCUUU | 0.738 nM
11 | Id_ii_S2_P4E.2_K4.1_C4.2_[C-2G]_H4.1_A4.1_F4.1_T4.2_[G10A] (ssRNA) RNA: UUUGAUUAAUAUGAUAUCGUUCUUUCUGUUGUAUAUUAAUUUCUUUCUCGAUAUCAUAUUAAUCUUU | 0.724 nM
12 | Id_ii_S2_P4E.2_K4.1_C4.2_[C-2G]_[T-1C]_H4.1_A4.1_F4.1_T4.2_[G10T] (ssRNA) RNA: UUUGAUUAAUAUGAUAUCGUUCUUUCUGCUGUAUAUUAUUUUCUUUCUCGAUAUCAUAUUAAUCUUU | 0.289 nM
13 | Id_ii_S2_P4E.2_K4.1_C4.2_[C-2G]_[T-1C]_H4.1_A4.1_F4.1_T4.2_[G10C]_[T11C] (ssRNA) RNA: UUUGAUUAAUAUGAUAUCGUUCUUUCUGCUGUAUAUUACCUUCUUUCUCGAUAUCAUAUUAAUCUUU | 1.25 nM
14 | Id_ii_S2_P4E.2_K4.1_C4.2_[C-2G]_[T-1C]_H4.1_A4.1_F4.1_T4.2_[G10C] (ssRNA) RNA: UUUGAUUAAUAUGAUAUCGUUCUUUCUGCUGUAUAUUACUUUCUUUCUCGAUAUCAUAUUAAUCUUU | 0.667 nM
15 | Id_ii_S2_P4E.2_K4.1_C4.2_[C-2G]_H4.1_A4.1_F4.1_T4.2_[G10A]_[T11A] (ssRNA) RNA: UUUGAUUAAUAUGAUAUCGUUCUUUCUGUUGUAUAUUAAAUUCUUUCUCGAUAUCAUAUUAAUCUUU | 0.659 nM
16 | Id_ii_S2_P4E.2_K4.1_C4.2_[C-2G]_[T-1C]_H4.1_A4.1_F4.1_T4.2_[G10A] (ssRNA) RNA: UUUGAUUAAUAUGAUAUCGUUCUUUCUGCUGUAUAUUAAUUUCUUUCUCGAUAUCAUAUUAAUCUUU | 0.535 nM
17 | Id_ii_S2_P4E.2_K4.1_C4.2_[C-2G]_[T-1C]_H4.1_A4.1_F4.1_T4.2_[G10T]_[T11G] (ssRNA) RNA: UUUGAUUAAUAUGAUAUCGUUCUUUCUGCUGUAUAUUAUGUUCUUUCUCGAUAUCAUAUUAAUCUUU | 0.82 nM
18 | Id_ii_S2_P4E.2_K4.1_C4.2_[C-2T]_[T-1G]_H4.1_A4.1_F4.1_T4.2_[G10A] (ssRNA) RNA: UUUGAUUAAUAUGAUAUCGUUCUUUCUUGUGUAUAUUAAUUUCUUUCUCGAUAUCAUAUUAAUCUUU | 0.4 nM
19 | Id_ii_S2_P4E.2_K4.1_C4.2_[C-2G]_[T-1G]_H4.1_A4.1_F4.1_T4.2_[G10A]_[T11A] (ssRNA) RNA: UUUGAUUAAUAUGAUAUCGUUCUUUCUGGUGUAUAUUAAAUUCUUUCUCGAUAUCAUAUUAAUCUUU | 1.5 nM
20 | Id_ii_S2_P4E.2_K4.1_C4.2_[C-2T]_[T-1G]_H4.1_A4.1_F4.1_T4.2_[G10T]_[T11C] (ssRNA) RNA: UUUGAUUAAUAUGAUAUCGUUCUUUCUUGUGUAUAUUAUCUUCUUUCUCGAUAUCAUAUUAAUCUUU | 0.441 nM
21 | Id_ii_S2_P4E.2_K4.1_C4.2_[C-2G]_[T-1C]_H4.1_A4.1_F4.1_T4.2_[G10T]_[T11A] (ssRNA) RNA: UUUGAUUAAUAUGAUAUCGUUCUUUCUGCUGUAUAUUAUAUUCUUUCUCGAUAUCAUAUUAAUCUUU | 0.822 nM
22 | UCUCUUUGUUUUAUAAUCUCUU (ssRNA) [Ib_S1_P5E.1_K5.1_C5.1_H5.1_[A4T]_A5.1_F5.1_[T9A]_T5.1] | 87.4 nM
23 | UCUCUUUGUGUUAUAAUCUCUU (ssRNA) [Ib_S1_P5E.1_K5.1_C5.1_H5.1_[A4G]_A5.1_F5.1_[T9A]_T5.1] | 57.8 nM
